From patent US20250059278A1 (SICHUAN HUIYU PHARMACEUTICAL, published 2025)

B1: CD3 monoclonal antibody M12 (antibody, human IgG1, lambda, V domains shown)
VH: EVQLVESGGGLVQPGGSLRLSCAASGFTFNTYAMNWVRQAPGKGLEWVARIRSKYNNYATYYADSVKGRFTISRDDSKSSLYLQMNNLKTEDTAMYYCVRHSNFPNSYVSWFAYWGQGTLVTVSS
VL: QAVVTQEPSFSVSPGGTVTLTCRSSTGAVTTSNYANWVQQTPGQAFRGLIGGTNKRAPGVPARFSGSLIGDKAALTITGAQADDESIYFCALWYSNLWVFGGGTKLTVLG
notes: IgG: VH12 + IgG1 mutant CH, VL-1 + CL
B2: CD3 monoclonal antibody M13 (antibody, human IgG1, lambda, V domains shown)
VH: EVQLVESGGGLVQPGGSLRLSCAASGFTFNTYAMNWVRQAPGKGLEWVARIRSKYNNYATYYADSVKGRFTISRDDSKSSLYLQMNSLKTEDTAVYYCVRHGNFKNSYGSWFAYWGQGTLVTVSS
VL: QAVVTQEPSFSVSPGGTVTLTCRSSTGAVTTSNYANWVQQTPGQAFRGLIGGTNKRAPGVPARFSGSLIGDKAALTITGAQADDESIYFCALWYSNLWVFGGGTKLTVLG
notes: IgG: VH13 + IgG1 mutant CH, VL-1 + CL
B3: CD3 monoclonal antibody M14 (antibody, human IgG1, lambda, V domains shown)
VH: EVQLVESGGGLVQPGGSLRLSCAASGFTFNTYAMNWVRQAPGKGLEWVARIRSKYNNYATYYADSVKDRFTISRDDSKSSLYLQMNSLKTEDTAMYYCVRHSNFGNSYVSWFEYWGQGTLVTVSS
VL: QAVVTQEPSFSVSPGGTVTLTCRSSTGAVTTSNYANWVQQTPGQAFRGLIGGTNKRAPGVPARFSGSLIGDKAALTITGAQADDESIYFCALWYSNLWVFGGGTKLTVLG
notes: IgG: VH14 + IgG1 mutant CH, VL-1 + CL
B4: CD3 monoclonal antibody M15 (antibody, human IgG1, lambda, V domains shown)
VH: EVQLVESGGGLVQPGGSLRLSCAASGFTFNTYAMNWVRQAPGKGLEWVARIRSKYNNYATYYADSVKDRFTISRDDSKSSLYLQMNSLKTEDTAMYYCVRHGDPGNSYVSWFAYWGQGTLVTVSS
VL: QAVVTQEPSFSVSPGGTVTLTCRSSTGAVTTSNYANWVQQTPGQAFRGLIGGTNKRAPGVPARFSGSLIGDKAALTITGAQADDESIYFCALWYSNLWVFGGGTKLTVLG
notes: IgG: VH15 + IgG1 mutant CH, VL-1 + CL
B5: CD3 monoclonal antibody M16 (antibody, human IgG1, lambda, V domains shown)
VH: EVQLVESGGGLVQPGGSLRLSCAASGFTFNTYAMNWVRQAPGKGLEWVARIRSKYNNYATYYADSVKGRFTISRDDSKSILYLQMNSLKTEDTAVYYCVRHGNFGNSYVSWFQYWGQGTLVTVSS
VL: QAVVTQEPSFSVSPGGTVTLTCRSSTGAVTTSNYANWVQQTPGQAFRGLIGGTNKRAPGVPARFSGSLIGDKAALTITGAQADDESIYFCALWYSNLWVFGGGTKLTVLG
notes: IgG: VH16 + IgG1 mutant CH, VL-1 + CL
B6: CD3 monoclonal antibody M17 (antibody, human IgG1, lambda, V domains shown)
VH: EVQLVESGGGLVQPGGSLRLSCAASGFTFNTYAMNWVRQAPGKGLEWVARIRSKYNNYATYYADSVKDRFTISRDDSKSILYLQMNSLKTEDTAMYYCVRHGNFWNSYVSWFASWGQGTLVTVSS
VL: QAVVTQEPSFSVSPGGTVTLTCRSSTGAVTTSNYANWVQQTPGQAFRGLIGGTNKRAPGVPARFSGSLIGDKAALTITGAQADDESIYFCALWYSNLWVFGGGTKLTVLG
notes: IgG: VH17 + IgG1 mutant CH, VL-1 + CL
B7: CD3 monoclonal antibody M18 (antibody, human IgG1, lambda, V domains shown)
VH: EVQLVESGGGLVQPGGSLRLSCAASGFTFNTYAMNWVRQAPGKGLEWVARIRSKYNNYATYYADSVKDRFTISRDDSKSSLYLQMNSLKTEDTAMYYCVRAGNFGNSYVNWFAYWGQGTLVTVSS
VL: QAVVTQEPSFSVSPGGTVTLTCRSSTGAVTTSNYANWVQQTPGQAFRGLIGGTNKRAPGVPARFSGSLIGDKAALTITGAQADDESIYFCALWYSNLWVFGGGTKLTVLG
notes: IgG: VH18 + IgG1 mutant CH, VL-1 + CL
B8: CD3 monoclonal antibody M19 (antibody, human IgG1, lambda, V domains shown)
VH: EVQLVESGGGLVQPGGSLRLSCAASGFTFNTYAMNWVRQAPGKGLEWVARIRSKYNNYATYYADSVKDRFTISRDDSKSILYLQMNSLKTEDTAVYYCVRHGNFGNSAVSWFQYWGQGTLVTVSS
VL: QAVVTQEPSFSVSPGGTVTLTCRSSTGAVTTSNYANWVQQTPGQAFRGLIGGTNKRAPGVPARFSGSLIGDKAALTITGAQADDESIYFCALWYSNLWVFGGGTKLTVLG
notes: IgG: VH19 + IgG1 mutant CH, VL-1 + CL
B9: CD3 monoclonal antibody M20 (antibody, human IgG1, lambda, V domains shown)
VH: EVQLVESGGGLVQPGGSLRLSCAASGFTFNTYAMNWVRQAPGKGLEWVARIRSKYNNYATYYADSVKDRFTISRDDSKSSLYLQMNSLKTEDTAVYYCVRHGNFGNSYVSWFQYWGQGTLVTVSS
VL: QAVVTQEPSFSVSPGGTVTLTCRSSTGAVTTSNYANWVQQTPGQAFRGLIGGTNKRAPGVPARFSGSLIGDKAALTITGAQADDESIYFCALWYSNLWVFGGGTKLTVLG
notes: IgG: VH20 + IgG1 mutant CH, VL-1 + CL
B10: CD3 monoclonal antibody M21 (antibody, human IgG1, lambda, V domains shown)
VH: EVQLVESGGGLVQPGGSLRLSCAASGFTFNTYAMNWVRQAPGKGLEWVARIRSKYNNYATYYADSVKGRFTISRDDSKSSLYLQMNSLKTEDTAMYYCVRHSNFGNTYVSWFAYWGQGTLVTVSS
VL: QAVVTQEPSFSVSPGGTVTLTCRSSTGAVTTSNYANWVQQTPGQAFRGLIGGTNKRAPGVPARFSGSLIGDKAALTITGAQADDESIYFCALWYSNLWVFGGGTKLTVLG
notes: IgG: VH21 + IgG1 mutant CH, VL-1 + CL
B11: Control antibody 1 (antibody, V domains shown)
VH: EVQLVESGGGLVQPKGSLKLSCAASGFTFNTYAMNWVRQAPGKGLEWVARIRSKYNNYATYYADSVKDRFTISRDDSQSILYLQMNNLKTEDTAMYYCVRHGNFGNSYVSWFAYWGQGTLVTVSA
VL: QAVVTQESALTTSPGETVTLTCRSSTGAVTTSNYANWVQEKPDHLFTGLIGGTNKRAPGVPARFSGSLIGDKAALTITGAQTEDEAIYFCALWYSNLWVFGGGTKLTVL
notes: also called positive control antibody 1
B12: Positive control antibody OKT3 (antibody, V domains shown)
VH: not shown
VL: QIVLTQSPAIMSASPGEKVTMTCSASSSVSYMNWYQQKSGTSPKRWIYDTSKLASGVPAHFRGSGSGTSYSLTISGMEAEDAATYYCQQWSSNPFTFGSGTKLEI

Columns and labels:
[1] = molecular target: T1, Monkey CD3 on cynomolgus HSC-F cells (cynomolgus monkey, UniProt Q95LI5 22-198; Q95LI7 23-181; Q95LI8 22-171); assay: flow cytometry on HSC-F cells
T1 construct: whole, on cells; also called Monkey CD3-expressing cynomolgus HSC-F cells; cynomolgus monkey CD3-expressing HSC-F cells

[2] = molecular target: T2, Human CD3 on Jurkat cells (human, UniProt P07766 23-207; P09693 23-182; P04234 22-171); assay: flow cytometry on Jurkat cells
T2 construct: whole, on cells; also called Human CD3-expressing Jurkat cells; Jurkat (naturally expressing human CD3)

[3] = molecular target: T3, Human CD3εγ recombinant antigen (acrobiosystems, Cat. No. CDG-H52W5) (human, UniProt P07766 23-126; P09693 23-116); assay: SPR chip (Carterra), antibody captured, antigen in flow;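 further: antibodies captured through anti-human IgG Fc at roughly 1000 RU, kinetic constants fitted with a 1:1 binding model in Carterra analysis software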
T3 construct: Bought recombinant protein
Procedure: Antibodies at three concentrations of 4, 2, and 1 μg/mL were immobilized on the HC200M chip containing anti-human IgG Fc secondary antibody (Xantec, Cat. No.: HC200M), and the antibody binding amount was controlled to approximately 1000RU. […] The kinetic constants were obtained by fitting using the 1:1 binding model of Kinetics software from Carterra.

Binder	EC50 [1] [pM]	EC50 [2] [pM]	Kd [3] [pM]	koff [3] [s⁻¹]	kon [3] [M⁻¹ s⁻¹]	binding result [1]
B1	162	270	1930	0.00768	3.97e+06	–
B2	276	832	3330	0.00045	135000	–
B3	271	1510	624	0.00128	2.05e+06	–
B4	118	166	160000	–	–	–
B5	162	478	2020	0.00188	929000	–
B6	210	181	2520	0.00108	429000	–
B7	841	515	179000	–	–	–
B8	238	190	1570	0.00256	1.63e+06	–
B9	6580	61700	2560	0.00232	908000	–
B10	1230	41600	3710	0.00649	1.75e+06	–
B11	487	474	–	–	–	–
B12	–	–	–	–	–	no binding (tested: 2 µg/ml starting concentration)
